From PMC10543557 come the findings set out here.

The target of this assay is FAM-labeled recombinant full-length SARS-CoV-2 Nsp1 (SARS-CoV-2-Nsp1_C-51-V) (SARS-CoV-2) (UniProt P0DTD1). The assay is described as follows: fluorescence polarisation. On the technique in general: Polarisation of emitted light reports the rotation of a fluorescent probe.

For orientation: Kd means the concentration at which binding is half-saturated.

As for “40S ribosomal subunit purified from rabbit reticulocyte lysate (from UniProt G1TNM3 1-243; G1SWM1 1-292) (complex)”, the Kd turned out to be 0.03 µM.
